Experimental data taken from the supplement of paper PMC10567573.

B1: KLHDC10 (parent)
chain: CPIIRIPNRFLRGHRPPPARSGHR

Variants of: B1
Test: protein stability index of a GFP-peptide fusion (GPS, HEK-293T) (PSI 1-6); higher = more stable
Conditions: c terminus: a fixed tail appended
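Note: lentivirally expressed fusions sorted by FACS into six bins by GFP to DsRed ratio, PSI derived from sequencing read proportions per bin multiplied by bin number.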

Protein stability index: each site, then its substitutions
H23: W 1.59, S 1.02, I 1.82, T 2.66, G 2.02, V 1.69, M 1.49, D 1.38, N 2.43, Q 2.06, F 1.52, R 1.67, E 1.66, Y 2.01, A 1.85, K 1.5, P 1.67, L 1.12
R5: W 2.73, A 3.57, F 2.62, V 2.6, N 4.4, I 2.81, Y 2.51, H 3.85, E 5.03, K 3.59, L 1.55, G 3.42, M 1.6, T 3.81, Q 3.54, D 4.21, P 3.89
L11: C 1.4, D 1.42, G 2.3, V 2.83, Q 1.35, F 1.84, K 3.08, H 1.69, R 2.54, Y 2, T 1.96, S 2.46, E 1.31, M 2.89, W 1.7
P18: S 2.37, L 1.47, M 1.74, K 2.5, R 1.63, C 1.82, G 2.95, H 2.37, T 1.92, A 1.51, W 1.85, N 2.43, V 2.27, Y 1.91, Q 1.78, D 1.49, I 2.17, E 1.78, F 1.62
P16: L 1.85, Y 1.31, K 3.27, Q 2.1, S 2.12, D 1.72, F 1.9, M 2.33, E 1.92, R 1.2, V 1.23, I 1.73, H 1.92, T 2.38, G 1.42, N 2.56, C 2.5
R24: A 2.37, E 1.59, C 1.82, D 2.93, G 2.1, F 1.31
G13: T 2.65, M 1.9, C 1.53, Q 2.36, R 1.74, H 1.98, A 2.21, L 1.85, I 2.04, F 1.81, E 1.38, P 1.48, W 2, N 2.2, Y 1.88, D 1.55, K 1.9
P7: F 2.28, S 3.13, C 1.89, H 3.62, I 2.39, M 3.29, D 2.91, N 2.6, K 2.7, R 3.66, L 2.25, G 3.71, A 2.38, V 1.86, Y 2.11, W 3.51, T 2.23, Q 3.04, E 1.57
G22: V 2.76, L 2.02, S 1.66, Y 1.98, F 2.01, C 1.62, R 2.17, Q 1.33, H 1.84, D 2.62, I 1.82, E 1.78, A 1.57, T 2.39, K 1.71, M 1.91, N 1.95
N8: G 1.38, E 2.15, Q 1.3, I 2.36, V 2.79, F 1.81, W 2.59, A 1.46, K 2.42, M 1.97, H 2.69, D 2.15, L 2.21, C 1.94, Y 2.07, R 2.54, T 2.52, S 2.44
R9: Q 2.47, Y 1.71, L 2.36, K 1.37, C 2.48, N 2.01, M 1.42, D 2.1, S 2.12, F 2.94, A 1.61, T 1.46, V 2.43, P 3.47, G 1.53, H 2.32
R15: T 1.73, I 1.28, S 1.69, D 2.11, M 1.84, G 1.69, F 1.43, Y 1.51, Q 2.44, L 1.05, W 1.47, N 2.3, A 1.3, K 2.19, V 1.84, E 1.92, C 1.68
H14: N 1.89, R 1.76, I 1.87, M 1.87, Y 1.33, T 1.74, W 2.89, K 2.57, L 1.32, F 1.83, G 1.46, C 1.48, P 2.15, E 2.22, A 1.96, V 2.46, D 1.69, S 2.07
R12: H 2.69, A 1.71, G 1.8, K 2.09, F 1.75, Y 2.43, S 1.9, D 1.92, I 2.32, W 2.5, P 1.63, T 2.02, L 2.25, N 2.27, M 1.06, C 1.28, E 2.47, Q 2.07, V 2.75
I6: D 4.25, L 4.07, S 2.04, Y 4.09, V 2.77, M 2.64, E 3.98, Q 2.77, K 3.37, W 4.13, A 3.29, H 4.75, F 4.26, R 3.69, G 3.96, N 4.01, P 4.35, C 2.4
I4: V 2.42, T 3.23, Y 3.02, W 3.12
S21: H 1.75, I 1.36, A 1.85, W 1.83, K 1.65, G 2.63, T 1.83, Q 1.42, R 1.97, F 2.91, V 1.62, L 1.97, M 1.66, P 1.94, N 2.25, D 1.75
R20: P 2.16, L 2.45, T 2.51, I 1.38, Q 1.93, V 2.62, F 2.81, M 2.13, C 1.48, G 1.95, D 2.73, A 2.48, W 1.75
A19: M 2.12, H 3.04, F 1.69, K 1.61, G 1.82, W 1.69, I 1.4, R 2.02, N 2.23, Q 1.48, D 2.95, L 1.46, S 1.8, V 1.48
F10: G 1.81, L 2.48, S 2.12, R 2.65, H 2.25, P 1.45, I 2.46, M 1.82, V 1.4, A 2.85, Y 1.8, K 1.71, C 2.48, E 1.71, Q 2.63, T 2.11, W 2.38
P17: E 1.93, N 2.2, G 2.09, A 2.28, S 2.27, H 1.76, Y 2.55, C 1.21, R 2.34, V 3.32, K 2.98, T 1.64, F 1.81, D 1.63, M 1.8, Q 1.57, W 1.97, I 1.93, L 2.28
